A short description of this data set: yeast display, Sf9 membrane polyspecificity reagent, FACS + sequencing; frameworks hold sequencing errors. In outline: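 Galactose-induced (36–48 hours) yeast carrying a synthetic nanobody display library were exposed to 10% biotinylated, detergent-solubilized Sf9 membrane reagent at 4 °C for 1 hour. FACS followed streptavidin microbead enrichment, using low and high (top ~1%) gates for expression (anti-HA) and reagent binding (streptavidin). Colony PCR, MiSeq 2 × 250 sequencing and CDR-length filtering followed. Labels for polyreactivity reflect the gate of origin.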
Consider “QVQLVESGGGLVQAGGSLRLSCAASGRTFQYYAMGWYRQAPGKERELVAAITSGGSTYYADSVKGRFTISRDNAKNTVYLQMNSLKTEDTAVYYCAADFLYYSSGGKMDYWGQGTQVTVSS”, for which the “polyreactivity (PSR sort gate)” value is on record as “low polyreactivity”.

Regarding “QVQLVESGGGLVQAGGSLRLSCAASGRIFYKYAMGWYRQAPGKERELVAAISWSGGRTYYADSVKGRFTISRDNAKNTVYLQMNSLKPEDTAVYYCAAVRGGASGGYDYWGQGTQVTVSS”, the “polyreactivity (PSR sort gate)” value is “high polyreactivity”.

As for “QVQHVESGGGLVQAGGSLRLSCAASGSIIVRYAMGWYRQAPGKERELVASISKRGGSTYYADSVKGRFTISRDNAKNTVYLQMKSLKPDDTAVYYCAAVGYYLVKFDYWGQGTQVTVSS”, the “polyreactivity (PSR sort gate)” value was “high polyreactivity”.

For “QVQLVESGGGLVQAGGSLRLSCAASGGTFISYAMGWYRQAPGKERELVAAISRGGSSTYYADSVKGRFTISRDNAKNTVYLQMNSLKPEDTAVYYCNKAYHRRDSEFGYWGQGTQVTVSS”, the “polyreactivity (PSR sort gate)” value is on record as “high polyreactivity”.

For “QVQLEESGGGLVHAGGSLRLSSAASGYTFKYYALACYRQAPGKERELVAAISARGGSTYYADSVKGRFTISRDNAKNTVYLQMNSVKPEDTAVYFCAARSGYGPYRMDYWGQGTQVTVSS”, the “polyreactivity (PSR sort gate)” value is given as “high polyreactivity”.

Regarding “QVQPVESGGGLVQAGGSLRLSCAASGSTLGHNAMGWYRQAPGKERELVAAITSSGGRTYYADSVKGRFTISRDNAKNTVYLQMNSLKPEDTAVYYCAADDTDYPEYDYWGQGTQVTVSS”, the “polyreactivity (PSR sort gate)” value is on record as “high polyreactivity”.

As to “QVQLVESGVGLVQAGGSLRLSCAASGRIFAPYAMGWYRQAPGKERELVAAIRWRGGSTSYADSVKGRFTISRDNAKNTVYLQMNSLKPEDTAVYYCNADYGFSFYWYDYWGQGTQVTVSS”, the “polyreactivity (PSR sort gate)” value was “low polyreactivity”.

For “QVQLVESGGGLVQAGGSLRLSCAASGSIFEVNAMGWYRQAPGKERELVATITYSGGSTYYSDSVKGRFTISRDNAKNTVYLQMHSLKPEDTAVFYCAAPIGDVYVGNGYDSWGQGTQVTVSS”, the “polyreactivity (PSR sort gate)” value is reported as “low polyreactivity”.

“QVQLVESGGGLVQARGSLRLSCAASGRIFLINGMGWYRQAPGKERELVAVITQSGGTYYADSVKGRFTISRDNAKNTVYLQMNSLKPEDTAVYYFAASSYGASRGYWGQGTQVTVSS”: the “polyreactivity (PSR sort gate)” value is on record as “high polyreactivity”.

For the sequence “QVQLVESGGVLVQAGGSLRLSCAASGRIFSNYAMGWYRQAPGKEWELVATIRKGGGSTYYADSVKGRFTISRDNAKNTVYLQMNSLKPEDTAVYYCAADGSLQTRRFDYWGQGTQVTVSS”, the “polyreactivity (PSR sort gate)” value is “high polyreactivity”.

For “QVQLVESGGGLVQAGGSLRLSCAASGFTFYVNAMGWYRQAPGKERELVAVISTGGSTYYADSVKGRFTISRDNAKNTVYLQMNSLKPEDTAVYYCAKRDLPDRSGTPNVIPFDYWGQGTQVTVSS”, the “polyreactivity (PSR sort gate)” value was “low polyreactivity”.

In the case of “QVQLVESGGGLVQAGGSLRLSCAASGSTLGAYAMGWYRQAPGKERELVAAISRSGGNTYYADSVKGRFTISRDNAKNTVYLQMNSLKPEDTAVYYCAAVKLFLGLCYDYWGQGTQVTVSS”, the “polyreactivity (PSR sort gate)” value is “low polyreactivity”.

For the sequence “QVQLVESGGGLVQAGGSLRLSSAASGFIIPDYGMGWYRQAPGKDSELVAAISRNGVSTYYADSVKGRFTISRDTAKNTVYLQMNSLKPEATAVYYCAARYYRIRRVSKSGYYWGQGTQVTVSS”, the “polyreactivity (PSR sort gate)” value is “low polyreactivity”.

On to “QVQLVESWGGLVQAGGSLRLSCAASGLPSKLMLMVWYRQAPGKERELVAAISSSGGRTYYADSVKGRFTISRDNAKITVYLQMNSLKPEDTAVYYCAAYFPRTLFEFGYWGQGNQVTVSS”, for which the “polyreactivity (PSR sort gate)” value is reported as “high polyreactivity”.

“QVQLVESGGGLVEAGGSLRLSCAASGSTFSVNAMGRYRQAPGKERELVAAISYRGGSTYYADSVKGRFTISRDNAKNTVYFQMNSLKPEDTAVYYCNAQRYRPGYWYDYWGQGTQVTVSS”: the “polyreactivity (PSR sort gate)” value is reported as “high polyreactivity”.

For the sequence “QVQLVESGGGLVQAGGSLRLSCAASGFTFPWYAMGSSRQAPGKERELVASISYRGDSTYYADSVKGRFTISRDNAKKTVNLQMNSLKPEDTAVYYCNKRLASYYLPGFDYWGQGTQVTVSS”, the “polyreactivity (PSR sort gate)” value is on record as “low polyreactivity”.
